Publication PMC9579148
pKd: −log10 of the molar value.

What follows are substances tested against SARS-CoV-2 main protease M^pro (untagged, native termini) (SARS-CoV-2) (UniProt P0DTD1) (assay: ITC).

Row | Substance | pKd | dH [kcal/mol] | stoichiometry N
1 | compound 4 (acetyl-Gly-Phe-His aldehyde, tripeptide derivative of AT1001) | 6.19 | -12.7 | 1.04
2 | compound 57 (BOC-Gly-Phe-His aldehyde) (peptide) | 6.35 | -14.5 | 0.991
3 | compound 58 (octanoyl-Gly-Phe-His aldehyde) (peptide) | 6.37 | -16.4 | 0.966
